Earlier results, collected in paper PMC11820823.

Columns and labels:
EphA8 Sam (Mus musculus) = EphA8 Sam (Mus musculus) (UniProt O09127); experiment: ITC
EphA2 Sam (Homo sapiens) = EphA2 Sam (Homo sapiens) (UniProt P29317)
EphA2 Sam (Mus musculus) = EphA2 Sam (Mus musculus) (UniProt Q03145)
Sequence of EphA2 Sam (Mus musculus) (Q03145 902-972): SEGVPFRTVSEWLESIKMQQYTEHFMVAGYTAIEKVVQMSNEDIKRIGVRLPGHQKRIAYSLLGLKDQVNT

Sequence of SASH1 SH3-Sam1 (P59808 547-690): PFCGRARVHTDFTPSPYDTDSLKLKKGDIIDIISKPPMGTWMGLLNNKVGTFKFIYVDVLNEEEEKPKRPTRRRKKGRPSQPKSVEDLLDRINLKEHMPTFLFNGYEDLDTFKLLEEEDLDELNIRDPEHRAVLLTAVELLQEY
Sequence of EphA8 Sam (Mus musculus) (O09127 926-996): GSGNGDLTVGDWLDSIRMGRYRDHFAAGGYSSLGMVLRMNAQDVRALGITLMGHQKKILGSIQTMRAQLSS
Sequence of Ship2 Sam (O15357 1193-1258): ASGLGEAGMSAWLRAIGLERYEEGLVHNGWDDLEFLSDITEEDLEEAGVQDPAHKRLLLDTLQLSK
Sequence of SASH1 Sam1 (P59808 623-693): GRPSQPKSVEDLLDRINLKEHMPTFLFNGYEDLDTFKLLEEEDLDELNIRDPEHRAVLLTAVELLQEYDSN
Sequence of EphA2 Sam (Homo sapiens) (P29317 901-971): as the sequence (Q03145 902-972) above, with V27A, S40T, E42D counted along it

Substance | Kd (EphA8 Sam (Mus musculus)) [nM] | Kd (EphA2 Sam (Homo sapiens)) [nM] | Kd (EphA2 Sam (Mus musculus)) [nM]
SASH1 Sam1 (from UniProt P59808) | 880 | – | –
Ship2 Sam (from UniProt O15357) | – | 750 | –
SASH1 SH3-Sam1 (from UniProt P59808) | 1090 | – | 2520
